Experimental data from PMC10397247.
Like-named read-outs stand apart in the source and are kept apart here.

How the values were obtained:
Experiment in all cases: two-hybrid library CCmax;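 further: natural log of median RNA to DNA barcode read ratio; higher means stronger binding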
[1] = target: T1, 4H3073-AA; conditions: mean of both orientations
T1 chain: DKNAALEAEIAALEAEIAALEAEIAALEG

[2] = target: T2, 4H347-AA; conditions: mean of both orientations
T2 chain: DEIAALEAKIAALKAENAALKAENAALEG

[3] = target: T3, 4H3493-AA; conditions: mean of both orientations
T3 chain: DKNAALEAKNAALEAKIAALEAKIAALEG

[4] = target: T4, 4H3381-AA; conditions: mean of both orientations
T4 chain: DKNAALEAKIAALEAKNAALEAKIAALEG

[5] = target: T5, 4H376-AA; conditions: mean of both orientations
T5 chain: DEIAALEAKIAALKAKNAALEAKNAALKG

[6] = target: GCN2_T
[7] = target: T6, 4H406-AA; conditions: mean of both orientations
T6 chain: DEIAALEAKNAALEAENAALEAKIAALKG

[8] = target: T7, 4H_APH
T7 chain: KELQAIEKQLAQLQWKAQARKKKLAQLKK

[9] = target: 4H_GCN4
[10] = target: T8, 4H_BCR; conditions: mean of both orientations
T8 chain: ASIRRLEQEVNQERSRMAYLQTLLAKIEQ

[11] = target: T9, 4H452-AA; conditions: mean of both orientations
T9 chain: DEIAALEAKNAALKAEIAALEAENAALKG

[12] = target: T10, 4H3015-AA; conditions: mean of both orientations
T10 chain: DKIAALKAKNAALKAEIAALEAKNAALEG

[13] = target: T11, 4H56-AA; conditions: mean of both orientations
T11 chain: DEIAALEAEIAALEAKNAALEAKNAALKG

[14] = target: T12, 4H3001-AA
T12 chain: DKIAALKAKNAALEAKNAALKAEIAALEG

[15] = target: T13, 4H3438-AA; conditions: mean of both orientations
T13 chain: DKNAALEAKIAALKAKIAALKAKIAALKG

[16] = target: T14, 4H963-AA; conditions: mean of both orientations
T14 chain: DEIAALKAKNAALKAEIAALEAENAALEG

[17] = target: T15, 4H688-AA
T15 chain: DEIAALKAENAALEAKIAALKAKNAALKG

[18] = target: T16, 4H3340-AA
T16 chain: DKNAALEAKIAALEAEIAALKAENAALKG

[19] = target: T17, 4H3413-AA; conditions: mean of both orientations
T17 chain: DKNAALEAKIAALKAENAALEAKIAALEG

[20] = target: T18, 4H2648-AA; conditions: mean of both orientations
T18 chain: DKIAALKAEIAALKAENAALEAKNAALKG

[21] = target: T19, 4H3162-AA; conditions: mean of both orientations
T19 chain: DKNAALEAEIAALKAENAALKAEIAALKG

[22] = target: T20, 4H3133-AA; conditions: mean of both orientations
T20 chain: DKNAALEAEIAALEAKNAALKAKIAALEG

[23] = target: T21, 4H3056-AA; conditions: mean of both orientations
T21 chain: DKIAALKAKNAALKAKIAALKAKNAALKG

[24] = target: T22, 4H3588-AA; conditions: mean of both orientations
T22 chain: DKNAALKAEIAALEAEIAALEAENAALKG

[25] = target: T23, 4H3631-AA; conditions: mean of both orientations
T23 chain: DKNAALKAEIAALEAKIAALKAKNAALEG

[26] = target: T24, 4H340-AA; conditions: mean of both orientations
T24 chain: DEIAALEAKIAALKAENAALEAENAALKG

[27] = target: T25, 4H3718-AA; conditions: mean of both orientations
T25 chain: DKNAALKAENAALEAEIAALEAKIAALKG

[28] = target: T26, 4H2774-AA
T26 chain: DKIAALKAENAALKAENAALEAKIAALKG

[29] = target: T27, 4H982-AA; conditions: mean of both orientations
T27 chain: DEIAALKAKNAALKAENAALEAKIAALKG

[30] = target: T28, 4H2620-AA; conditions: mean of both orientations
T28 chain: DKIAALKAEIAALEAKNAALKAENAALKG

[31] = target: T29, 4H3865-AA
T29 chain: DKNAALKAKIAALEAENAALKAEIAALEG

[32] = target: T30, 4H384-AA; conditions: mean of both orientations
T30 chain: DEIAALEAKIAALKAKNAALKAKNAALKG

[33] = target: T31, 4H3697-AA; conditions: mean of both orientations
T31 chain: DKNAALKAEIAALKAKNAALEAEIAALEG

[34] = target: T32, 4H3378-AA; conditions: mean of both orientations
T32 chain: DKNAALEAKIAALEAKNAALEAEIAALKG

[35] = target: T33, 4H2611-AA
T33 chain: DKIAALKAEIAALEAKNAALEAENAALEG

[36] = target: T34, 4H697-AA
T34 chain: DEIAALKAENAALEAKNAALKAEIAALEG

[37] = target: T35, 4H2907-AA; conditions: mean of both orientations
T35 chain: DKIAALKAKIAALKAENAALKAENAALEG

[38] = target: T36, 4H32-AA; conditions: mean of both orientations
T36 chain: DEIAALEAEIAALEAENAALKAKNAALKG

[39] = target: T37, 4H3606-AA; conditions: mean of both orientations
T37 chain: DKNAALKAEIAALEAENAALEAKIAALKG

[40] = target: T38, 4H3777-AA; conditions: mean of both orientations
T38 chain: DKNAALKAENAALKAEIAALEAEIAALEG

[41] = target: T39, 4H2947-AA; conditions: mean of both orientations
T39 chain: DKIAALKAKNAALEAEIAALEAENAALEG

[42] = target: T40, 4H3619-AA; conditions: mean of both orientations
T40 chain: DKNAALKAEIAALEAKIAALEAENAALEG

[43] = target: T41, 4H2903-AA; conditions: mean of both orientations
T41 chain: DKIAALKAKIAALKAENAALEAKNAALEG

[44] = target: T42, 4H3595-AA; conditions: mean of both orientations
T42 chain: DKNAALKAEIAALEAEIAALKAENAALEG

[45] = target: T43, 4H3414-AA; conditions: mean of both orientations
T43 chain: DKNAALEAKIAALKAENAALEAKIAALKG

[46] = target: T44, 4H341-AA; conditions: mean of both orientations
T44 chain: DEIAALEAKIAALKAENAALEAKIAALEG

[47] = target: T45, 4H3129-AA; conditions: mean of both orientations
T45 chain: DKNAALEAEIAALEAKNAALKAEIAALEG

[48] = target: T46, 4H3969-AA; conditions: mean of both orientations
T46 chain: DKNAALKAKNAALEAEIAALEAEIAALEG

[49] = target: T47, 4H3939-AA; conditions: mean of both orientations
T47 chain: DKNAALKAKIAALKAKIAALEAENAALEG

[50] = target: T48, 4H3049-AA; conditions: mean of both orientations
T48 chain: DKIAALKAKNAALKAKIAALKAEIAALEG

[51] = target: T49, 4H324-AA; conditions: mean of both orientations
T49 chain: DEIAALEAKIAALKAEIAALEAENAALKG

[52] = target: T50, 4H63-AA; conditions: mean of both orientations
T50 chain: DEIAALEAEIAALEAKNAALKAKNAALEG

[53] = target: T51, 4H432-AA; conditions: mean of both orientations
T51 chain: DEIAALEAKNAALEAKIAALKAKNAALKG

[54] = target: T52, 4H3094-AA; conditions: mean of both orientations
T52 chain: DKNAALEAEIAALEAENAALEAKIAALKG

[55] = target: T53, 4H3915-AA; conditions: mean of both orientations
T53 chain: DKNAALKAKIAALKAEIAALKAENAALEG

[56] = target: T54, 4H464-AA; conditions: mean of both orientations
T54 chain: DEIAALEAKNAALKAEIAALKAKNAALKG

[57] = target: T55, 4H2931-AA; conditions: mean of both orientations
T55 chain: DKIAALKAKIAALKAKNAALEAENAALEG

[58] = target: T56, 4H483-AA; conditions: mean of both orientations
T56 chain: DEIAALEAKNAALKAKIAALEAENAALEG

[59] = target: T57, 4H2961-AA; conditions: mean of both orientations
T57 chain: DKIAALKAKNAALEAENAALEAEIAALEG

[60] = target: T58, 4H3782-AA; conditions: mean of both orientations
T58 chain: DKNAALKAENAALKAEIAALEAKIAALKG

[61] = target: T59, 4H3974-AA; conditions: mean of both orientations
T59 chain: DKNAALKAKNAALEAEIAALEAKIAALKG

[62] = target: T60, 4H380-AA; conditions: mean of both orientations
T60 chain: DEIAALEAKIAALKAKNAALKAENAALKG

[63] = target: T61, 4H3449-AA; conditions: mean of both orientations
T61 chain: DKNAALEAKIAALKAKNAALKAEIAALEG

[64] = target: T62, 4H446-AA; conditions: mean of both orientations
T62 chain: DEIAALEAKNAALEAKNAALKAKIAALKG

[65] = target: T63, 4H3629-AA; conditions: mean of both orientations
T63 chain: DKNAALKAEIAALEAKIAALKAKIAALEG

4H_GCN4, sequence (chain, as listed by the source): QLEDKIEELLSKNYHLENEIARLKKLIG

DKIAALKAKNAALEAKNAALKAEIAALEG [4H3001-AA]
interaction score [1]: -0.938 | interaction score [2]: -2.08 | interaction score [3]: -1.38 | interaction score [4]: -1.43 | interaction score [5]: -1.69 | interaction score [6]: -1.9 | interaction score [7]: 2.27 | interaction score [8]: -2 | interaction score ([9]; mean of both orientations): -2.43 | interaction score [10]: -2.15 | interaction score [11]: -1.76 | interaction score [12]: -1.86 | interaction score [13]: -1.87 | interaction score [14]: -1.82 | interaction score [15]: -1.83 | interaction score [16]: -1.94 | interaction score ([17]; mean of both orientations): -1.46 | interaction score ([18]; mean of both orientations): -1.44

DKNAALEAKIAALEAEIAALKAENAALKG [4H3340-AA]
interaction score [2]: -0.858 | interaction score [3]: -1.48 | interaction score [4]: -1.57 | interaction score [5]: -1.48 | interaction score [7]: -1.43 | interaction score [16]: -2.28 | interaction score [17]: -1.69 | interaction score [18]: 1.7

DKIAALKAEIAALEAKNAALEAENAALEG [4H2611-AA]
interaction score [2]: -0.637 | interaction score [3]: -1.87 | interaction score [19]: -1.32 | interaction score [20]: 1.2 | interaction score [21]: -1.57 | interaction score [22]: -1.77 | interaction score [23]: -1.57 | interaction score [4]: -1.73 | interaction score [5]: 1.87 | interaction score [24]: -1.55 | interaction score [25]: -0.311 | interaction score [7]: -1.29 | interaction score [26]: 1.81 | interaction score [27]: -0.987 | interaction score ([28]; mean of both orientations): -1.54 | interaction score [29]: -1.45 | interaction score [30]: 0.167 | interaction score [31]: -1.39 | interaction score ([14]; mean of both orientations): -1.69 | interaction score [32]: 2.04 | interaction score [33]: -2.02 | interaction score [34]: -2.55 | interaction score [35]: -1.29 | interaction score [36]: -2.17 | interaction score [37]: -1.28 | interaction score [38]: 1.56 | interaction score [39]: -1.56 | interaction score [16]: -1.66 | interaction score ([17]; mean of both orientations): -1.66 | interaction score ([18]; mean of both orientations): -1.49

DKIAALKAENAALKAENAALEAKIAALKG [4H2774-AA]
interaction score [1]: -1.43 | interaction score [2]: -0.921 | interaction score [3]: -1.56 | interaction score [40]: -0.668 | interaction score [41]: -1.7 | interaction score [42]: -1.75 | interaction score [4]: -1.61 | interaction score [5]: -2.64 | interaction score [6]: -1.68 | interaction score [43]: -1.73 | interaction score [44]: -1.57 | interaction score [45]: -1.5 | interaction score [7]: -0.207 | interaction score [46]: 0.103 | interaction score [47]: -0.715 | interaction score [48]: -1.72 | interaction score [49]: -1.9 | interaction score [28]: 1.65 | interaction score [50]: 1.59 | interaction score [51]: -1.75 | interaction score ([8]; mean of both orientations): -1.61 | interaction score [52]: -1.37 | interaction score [9]: -2.24 | interaction score [10]: -0.289 | interaction score [53]: -1.57 | interaction score [54]: -0.282 | interaction score [11]: -0.902 | interaction score [55]: -1.36 | interaction score [12]: -1.48 | interaction score [56]: -1.18 | interaction score [13]: -1.47 | interaction score [57]: -1.98 | interaction score [58]: -1.21 | interaction score [59]: -0.737 | interaction score ([14]; mean of both orientations): 0.364 | interaction score [60]: -1.14 | interaction score [61]: -0.913 | interaction score [62]: -1.68 | interaction score [63]: -0.756 | interaction score [15]: -1.63 | interaction score [16]: -0.529 | interaction score ([17]; mean of both orientations): -0.923 | interaction score [64]: 1.28 | interaction score ([18]; mean of both orientations): -1.59 | interaction score [65]: -1.34
